The text below walks through data of patent publication US20230346966A1.

This experiment addresses recombinant human TfR1 (human) (UniProt P02786). In words: SPR (Carterra LSA), IgG captured, TfR1 injected, 25 C.

recombinant human TfR1 (human), sequence (P02786 89-760 limits assumed): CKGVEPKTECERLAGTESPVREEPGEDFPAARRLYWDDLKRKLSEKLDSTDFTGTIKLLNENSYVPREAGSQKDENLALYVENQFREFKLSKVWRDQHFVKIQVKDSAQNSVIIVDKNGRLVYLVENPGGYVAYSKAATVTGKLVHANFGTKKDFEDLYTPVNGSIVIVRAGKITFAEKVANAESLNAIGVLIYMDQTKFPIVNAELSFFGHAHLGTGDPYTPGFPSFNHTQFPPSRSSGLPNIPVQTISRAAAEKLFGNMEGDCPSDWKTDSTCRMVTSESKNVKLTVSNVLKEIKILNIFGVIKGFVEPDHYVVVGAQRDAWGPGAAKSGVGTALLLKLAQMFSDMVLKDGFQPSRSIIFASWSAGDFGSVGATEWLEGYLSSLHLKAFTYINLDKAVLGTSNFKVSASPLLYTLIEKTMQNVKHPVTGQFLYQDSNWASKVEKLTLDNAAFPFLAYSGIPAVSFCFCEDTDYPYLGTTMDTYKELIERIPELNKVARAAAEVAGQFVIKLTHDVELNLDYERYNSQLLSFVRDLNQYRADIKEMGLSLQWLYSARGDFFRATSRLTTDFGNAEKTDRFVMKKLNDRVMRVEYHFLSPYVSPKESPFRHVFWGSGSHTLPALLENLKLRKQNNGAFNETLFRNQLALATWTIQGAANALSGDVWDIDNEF

With OKT9 mIgG (control) (antibody), the dissociation constant Kd stood at 536 pM and the kon is 774000 M⁻¹ s⁻¹.

Usually Kd stands for the concentration at which binding is half-saturated. In general, kon refers to the second-order rate constant of association.
